{
  "source": "paper PMC9784564",
  "about": "(2022)",
  "binders": {"B1": {"name": "CB79 (antibody, V domains shown)", "VH": "QVHLVQSGAEVKKPGASVKVSCKASGYTFTDYYMHWVRQAPGQGLEWMGRINPNSGGTNYPETLQGRVTMTTDTSTSTAYLEVRSLTPDDTAVYYCARVPYCSSTSCYSDWYFDLWGQGTLVTVSS", "VL": "DIVLTQSPLSLPVTPGETASISCRSSQSILDSDDGNTYLDWYLQKPGQSPQLLIYSLSYRASGVPDRFSASGSGTDFTLKISGVEAEDVGVYYCMQRIEFPLTFGGGTKLEIK"}},
  "target": "CoV-2-RBD of the SARS-CoV-2 Inhibitor Screening Kit (SARS-CoV-2, UniProt P0DTC2 319-541)",
  "assay": "ELISA",
  "data": [
    {"binder": "B1", "values": [
      {"measurement": "IC50", "result": 0.14, "unit": "µg/mL"}
    ]}
  ]
}
